Data from patent publication US20030104423A1 (WISCONSIN ALUMNI RESEARCH FOUNDATION, published 2003).

Legend:
[1] = target: T1, Bovine serum albumin (bovine, UniProt P02769 25-607); experiment: Ni-NTA co-immobilization, SDS-PAGE
T1 construct: also called BSA

[2] = target: T2, σ70, native, untagged (pLN12) (Escherichia coli, UniProt P00579 1-613); experiment: Ni-NTA co-immobilization, SDS-PAGE
T2 construct: range 1-613; also called native ?^70

[3] = target: T3, β′ 1-1407 N309D with C-terminal His6 (pTA609) (Escherichia coli, UniProt P0A8T7 1-1407); experiment: Assembly Eσ32 holo: co-purification with His6-β′ from cells, Western blot; grade
T3 construct: range 1-1407

[4] = target: T4, β′ 1-1407 R297S with C-terminal His6 (pTA606) (Escherichia coli, UniProt P0A8T7 1-1407); experiment: as above
T4 construct: range 1-1407

[5] = target: T5, β′ 1-1407 R275Q with C-terminal His6 (pTA602) (Escherichia coli, UniProt P0A8T7 1-1407); experiment: as above
T5 construct: range 1-1407

[6] = target: T6, β′ 1-1407 wild type with C-terminal His6 (pTA577) (Escherichia coli, UniProt P0A8T7 1-1407); experiment: as above
T6 construct: range 1-1407; also called wt; wild type β′

[7] = target: T7, β′ 1-1407 N266D with C-terminal His6 (pTA600) (Escherichia coli, UniProt P0A8T7 1-1407); experiment: as above
T7 construct: range 1-1407

[8] = target: T8, β′ 1-1407 K280E with C-terminal His6 (pTA603) (Escherichia coli, UniProt P0A8T7 1-1407); experiment: as above
T8 construct: range 1-1407

[9] = target: T9, β′ 1-1407 Y269A with C-terminal His6 (pTA601) (Escherichia coli, UniProt P0A8T7 1-1407); experiment: as above
T9 construct: range 1-1407

[10] = target: T10, β′ 1-1407 E295K with C-terminal His6 (pTA605) (Escherichia coli, UniProt P0A8T7 1-1407); experiment: as above
T10 construct: range 1-1407

[11] = target: T11, β′ 1-1407 A302D with C-terminal His6 (pTA608) (Escherichia coli, UniProt P0A8T7 1-1407); experiment: as above
T11 construct: range 1-1407

[12] = target: T12, β′ 1-1407 R293Q with C-terminal His6 (pTA604) (Escherichia coli, UniProt P0A8T7 1-1407); experiment: as above
T12 construct: range 1-1407

[13] = target: T13, β′ 1-1407 Q300E with C-terminal His6 (pTA607) (Escherichia coli, UniProt P0A8T7 1-1407); experiment: as above
T13 construct: range 1-1407

[14] = target: T4, β′ 1-1407 R297S with C-terminal His6 …; experiment: co-purification with His6-β′ from cells, Western blot
[15] = target: T6, β′ 1-1407 wild type with C-terminal …; experiment: as above
[16] = target: T13, β′ 1-1407 Q300E with C-terminal His6 …; experiment: as above

T1 sequence (P02769 25-607 limits assumed): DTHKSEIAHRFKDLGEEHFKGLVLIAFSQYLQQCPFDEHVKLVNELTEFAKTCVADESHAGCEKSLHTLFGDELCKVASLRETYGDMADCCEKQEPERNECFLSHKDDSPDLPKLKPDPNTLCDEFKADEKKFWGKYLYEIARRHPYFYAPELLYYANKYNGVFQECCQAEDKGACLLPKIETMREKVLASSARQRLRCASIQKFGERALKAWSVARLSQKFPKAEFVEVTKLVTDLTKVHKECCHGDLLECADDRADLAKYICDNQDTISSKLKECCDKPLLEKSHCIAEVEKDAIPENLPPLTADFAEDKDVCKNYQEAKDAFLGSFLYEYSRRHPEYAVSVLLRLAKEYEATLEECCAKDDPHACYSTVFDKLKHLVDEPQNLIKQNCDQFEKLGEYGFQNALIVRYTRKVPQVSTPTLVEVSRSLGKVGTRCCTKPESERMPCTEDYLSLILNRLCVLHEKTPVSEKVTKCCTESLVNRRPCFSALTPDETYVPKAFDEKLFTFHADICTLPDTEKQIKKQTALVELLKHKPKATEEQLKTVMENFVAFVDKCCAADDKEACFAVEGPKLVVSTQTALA

B1: His6-HMK-β′1-309 (pTA525) (enzyme)
chain: MKDLLKFLKAQTKTEEFDAIKIALASPDMIRSWSFGEVKKPETINYRTFKPERDGLFCARIFGPVKDYECLCGKYKRLKHRGVICEKCGVEVTQTKVRRERMGHIELASPTAHIWFLKSLPSRIGLLLDMPLRDIERVLYFESYVVIEGGMTNLERQQILTEEQYLDALEEFGDEFDAKMGAEAIQALLKSMDLEQECEQLREELNETNSETKRKKLTKRIKLLEAFVQSGNKPEWMILTVLPVLPPDLRPLVPLDGGRFATSDLNDLYRRVINRNNRLKRLLDLAAPDIIVRNEKRMLQEAVDALLDN
Q: Does B1 bind [1]?
A: no binding

Q: Does B1 bind [2]?
A: binds

B2: σ32 of E. coli (the cell's own) (other)
chain: MTDKMQSLALAPVGNLDSYIRAANAWPMLSADEERALAEKLHYHGDLEAAKTLILSHLRFVVHIARNYAGYGLPQADLIQEGNIGLMKAVRRFNPEVGVRLVSFAVHWIKAEIHEYVLRNWRIVKVATTKAQRKLFFNLRKTKQRLGWFNQDEVEMVARELGVTSKDVREMESRMAAQDMTFDLSSDDDSDSQPMAPVLYLQDKSSNFADGIEDDNWEEQAANRLTDAMQGLDERSQDIIRARWLDEDNKSTLQELADRYGVSAERVRQLEKNAMKKLRAAIEA
notes: also called E?32
Q: Does B2 bind [3]?
A: binds

Q: Does B2 bind [4]?
A: binds

Q: Does B2 bind [5]?
A: no binding

Q: Does B2 bind [6]?
A: binds

Q: Does B2 bind [7]?
A: no binding

Q: Does B2 bind [8]?
A: binds

Q: Does B2 bind [9]?
A: binds

Q: Does B2 bind [10]?
A: no binding

Q: Does B2 bind [11]?
A: no binding

Q: Does B2 bind [12]?
A: binds

Q: Does B2 bind [13]?
A: binds

B3: σF of E. coli (the cell's own) (other)
chain: MNSLYTAEGVMDKHSLWQRYVPLVRHEALRLQVRLPASVELDDLLQAGGIGLLNAVERYDALQGTAFTTYAVQRIRGAMLDELRSRDWVPRSVRRNAREVAQAIGQLEQELGRNATETEVAERLGIDIADYRQMLLDTNNSQLFSYDEWREEHGDSIELVTDDHQRENPLQQLLDSNLRQRVMEAIETLPEREKLVLTLYYQEELNLKEIGAVLEVGESRVSQLHSQAIKRLRTKLGKL
Q: Does B3 bind [14]?
A: binds

Q: Does B3 bind [15]?
A: binds

Q: Does B3 bind [16]?
A: binds
